In PMC7948490 (2020) one finds Kd data, which are given here for two molecules.

The Kd is a measure of binding affinity in units of concentration. Low values mean tighter binding, high ones weaker binding.

The target in assay [1] is T1, F-actin (alpha-actin, skeletal muscle) (Gallus gallus, UniProt P68139). Description: kinetic global fit (KinTek Explorer), no nucleotide.
Assay [2] has as its target T1, F-actin (alpha-actin, skeletal muscle). Kind of assay: kinetic global fit (KinTek Explorer).
Assay [3] shares this target. Description: stopped-flow pyrene-actin fluorescence (k-A/k+A), 20 °C, no nucleotide.

B1: Myosin-1C0-ΔTH1 isoform C0 lacking TH1 domain (protein)
chain: MESALTARDRVGVQDFVLLENFTSEAAFIENLRRRFRENLIYTYIGPVLVSVNPYRDLQIYSRQHMERYRGVSFYEVPPHLFAVADTVYRALRTERRDQAVMISGESGAGKTEATKRLLQFYAETCPAPERGGAVRDRLLQSNPVLEAFGNAKTLRNDNSSRFGKYMDVQFDFKGAPVGGHILSYLLEKSRVVHQNHGERNFHIFYQLLEGGEEETLRRLGLERNPQSYLYLVKGQCAKVSSINDKSDWKVVRKALTVIDFTEDEVEDLLSIVASVLHLGNIHFAANEESNAQVTTENQLKYLTRLLSVEGSTLREALTHRKIIAKGEELLSPLNLEQAAYARDALAKAVYSRTFTWLVGKINRSLASKDVESPSWRSTTVLGLLDIYGFEVFQHNSFEQFCINYCNEKLQQLFIELTLKSEQEEYEAEGIAWEPVQYFNNKIICDLVEEKFKGIISILDEECLRPGEATDLTFLEKLEDTVKHHPHFLTHKLADQRTRKSLGRGEFRLLHYAGEVTYSVTGFLDKNNDLLFRNLKETMCSSKNPIMSQCFDRSELSDKKRPETVATQFKMSLLQLVEILQSKEPAYVRCIKPNDAKQPGRFDEVLIRHQVKYLGLLENLRVRRAGFAYRRKYEAFLQRYKSLCPETWPTWAGRPQDGVAVLVRHLGYKPEEYKMGRTKIFIRFPKTLFATEDALEVRRQSLATKIQAAWRGFHWRQKFLRVKRSAICIQSWWRGTLGRRKAAKRKWAAQTIRRLIRGFVLRHAPRCPENAFFLDHVRTSFLLNLRRQLPQNVLDTSWPTPPPALREASELLRELCIKNMVWKYCRSISPEWKQQLQQKAVASEIFKGK
For B1, the Kd in assay [1] is 13 nM; in assay [2], 10800 nM; in assay [3], 13.7 nM.

B2: Myosin-1C35-ΔTH1 isoform C35 lacking TH1 domain (protein)
chain: MALQVELVPTGEIIRVVHPHRPCKLALGSDGVRVTMESALTARDRVGVQDFVLLENFTSEAAFIENLRRRFRENLIYTYIGPVLVSVNPYRDLQIYSRQHMERYRGVSFYEVPPHLFAVADTVYRALRTERRDQAVMISGESGAGKTEATKRLLQFYAETCPAPERGGAVRDRLLQSNPVLEAFGNAKTLRNDNSSRFGKYMDVQFDFKGAPVGGHILSYLLEKSRVVHQNHGERNFHIFYQLLEGGEEETLRRLGLERNPQSYLYLVKGQCAKVSSINDKSDWKVVRKALTVIDFTEDEVEDLLSIVASVLHLGNIHFAANEESNAQVTTENQLKYLTRLLSVEGSTLREALTHRKIIAKGEELLSPLNLEQAAYARDALAKAVYSRTFTWLVGKINRSLASKDVESPSWRSTTVLGLLDIYGFEVFQHNSFEQFCINYCNEKLQQLFIELTLKSEQEEYEAEGIAWEPVQYFNNKIICDLVEEKFKGIISILDEECLRPGEATDLTFLEKLEDTVKHHPHFLTHKLADQRTRKSLGRGEFRLLHYAGEVTYSVTGFLDKNNDLLFRNLKETMCSSKNPIMSQCFDRSELSDKKRPETVATQFKMSLLQLVEILQSKEPAYVRCIKPNDAKQPGRFDEVLIRHQVKYLGLLENLRVRRAGFAYRRKYEAFLQRYKSLCPETWPTWAGRPQDGVAVLVRHLGYKPEEYKMGRTKIFIRFPKTLFATEDALEVRRQSLATKIQAAWRGFHWRQKFLRVKRSAICIQSWWRGTLGRRKAAKRKWAAQTIRRLIRGFVLRHAPRCPENAFFLDHVRTSFLLNLRRQLPQNVLDTSWPTPPPALREASELLRELCIKNMVWKYCRSISPEWKQQLQQKAVASEIFKGK
For B2, the Kd in assay [1] came to 16.3 nM; in assay [2] it was 22200 nM; in assay [3], 16.9 nM.
